# Reference: paper PMC12187637
# Legend:
# [1] = target: GFP-tagged ADP-ribosylation-deficient NuMA, NuMA^PARmut construct (UniProt Q14980); test: co-IP; GFP-trap magnetic beads on the chromatin fraction of cells co-transfected with myc-TDP1 and treated with 10 uM H2O2 for 10 min on ice in the dark; immunoblot; three biological replicates
# [2] = target: GFP-tagged ADP-ribosylation-deficient NuMA, NuMA^PARmut construct (UniProt Q14980); test: co-IP; GFP-trap magnetic beads on whole-cell extracts (NP-40 lysis buffer with BaseMuncher endonuclease and ADP-HPD) of cells transfected with GFP-NuMA and co-transfected with myc-TDP1, untreated or treated with 10 uM H2O2 for 10 min on ice in the dark; 2 h at 4°C; immunoblot; three biological replicates
# UniProt Q14980, sequence (Q14980 other isoform, or with tags, fused parts or gaps, change not shown): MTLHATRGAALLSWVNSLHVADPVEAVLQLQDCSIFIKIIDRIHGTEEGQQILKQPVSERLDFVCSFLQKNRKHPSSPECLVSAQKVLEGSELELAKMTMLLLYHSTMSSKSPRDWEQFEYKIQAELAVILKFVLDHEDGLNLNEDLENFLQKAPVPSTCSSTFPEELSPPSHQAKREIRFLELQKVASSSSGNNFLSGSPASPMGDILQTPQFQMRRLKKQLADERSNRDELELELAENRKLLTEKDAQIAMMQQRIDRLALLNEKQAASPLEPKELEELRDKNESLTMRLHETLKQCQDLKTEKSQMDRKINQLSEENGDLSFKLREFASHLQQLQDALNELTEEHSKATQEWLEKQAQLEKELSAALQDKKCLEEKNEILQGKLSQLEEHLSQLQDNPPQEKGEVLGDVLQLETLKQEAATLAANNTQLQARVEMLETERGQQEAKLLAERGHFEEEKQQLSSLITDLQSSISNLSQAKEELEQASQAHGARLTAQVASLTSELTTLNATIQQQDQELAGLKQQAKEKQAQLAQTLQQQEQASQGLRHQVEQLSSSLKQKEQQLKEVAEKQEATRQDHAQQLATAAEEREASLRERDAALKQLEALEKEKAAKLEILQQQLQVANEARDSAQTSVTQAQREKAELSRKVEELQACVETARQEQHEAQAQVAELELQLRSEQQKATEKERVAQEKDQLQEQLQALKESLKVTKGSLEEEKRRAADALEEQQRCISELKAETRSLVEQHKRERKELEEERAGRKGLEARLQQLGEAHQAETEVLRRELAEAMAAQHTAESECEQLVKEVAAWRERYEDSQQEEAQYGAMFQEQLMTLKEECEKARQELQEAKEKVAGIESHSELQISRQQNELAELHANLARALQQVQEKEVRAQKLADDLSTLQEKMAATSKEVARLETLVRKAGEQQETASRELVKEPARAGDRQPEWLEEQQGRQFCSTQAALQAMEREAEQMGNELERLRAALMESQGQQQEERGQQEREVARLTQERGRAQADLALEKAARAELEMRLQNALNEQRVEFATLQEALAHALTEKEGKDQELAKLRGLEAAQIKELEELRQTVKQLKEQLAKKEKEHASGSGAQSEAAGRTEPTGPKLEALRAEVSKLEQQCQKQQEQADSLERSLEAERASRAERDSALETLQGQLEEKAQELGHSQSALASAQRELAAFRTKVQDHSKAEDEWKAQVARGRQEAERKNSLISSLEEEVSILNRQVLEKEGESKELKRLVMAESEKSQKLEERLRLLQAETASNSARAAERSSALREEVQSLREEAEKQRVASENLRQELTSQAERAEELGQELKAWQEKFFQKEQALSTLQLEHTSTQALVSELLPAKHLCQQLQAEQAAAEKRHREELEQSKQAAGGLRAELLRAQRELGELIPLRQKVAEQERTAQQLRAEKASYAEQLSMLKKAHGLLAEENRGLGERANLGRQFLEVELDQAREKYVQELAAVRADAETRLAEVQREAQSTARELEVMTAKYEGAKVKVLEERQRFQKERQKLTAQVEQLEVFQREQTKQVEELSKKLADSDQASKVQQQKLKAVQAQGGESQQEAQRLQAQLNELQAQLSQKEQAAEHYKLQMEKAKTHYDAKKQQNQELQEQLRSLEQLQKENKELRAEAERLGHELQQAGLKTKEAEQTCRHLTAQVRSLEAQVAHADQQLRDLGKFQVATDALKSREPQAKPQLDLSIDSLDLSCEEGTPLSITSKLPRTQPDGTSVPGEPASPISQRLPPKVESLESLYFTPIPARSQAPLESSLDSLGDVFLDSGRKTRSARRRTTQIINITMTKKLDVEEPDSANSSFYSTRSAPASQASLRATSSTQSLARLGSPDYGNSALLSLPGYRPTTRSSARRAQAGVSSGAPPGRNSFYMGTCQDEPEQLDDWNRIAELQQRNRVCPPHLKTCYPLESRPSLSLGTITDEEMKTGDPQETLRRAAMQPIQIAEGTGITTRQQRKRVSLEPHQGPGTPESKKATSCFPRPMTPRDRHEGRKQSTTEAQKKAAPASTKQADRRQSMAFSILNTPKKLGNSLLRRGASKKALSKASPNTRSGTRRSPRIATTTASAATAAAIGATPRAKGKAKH
substance,measurement,setting,value
myc-TDP1 (tyrosyl DNA phosphodiesterase 1) (from UniProt Q9NUW8 1-608) (enzyme),"percent lower interaction than with NuMA^WT (chromatin fraction, H2O2-treated cells)",[1],50%
same,percent decrease in interaction relative to NuMA^WT (H2O2-treated cells),[2],38 to 45%
same,percent decrease in interaction relative to NuMA^WT (untreated cells),[2],38 to 45%
